Data set [1] has as its target T1, rRex (Streptococcus mutans UA159?) (UniProt Q8DU91).
T1 sequence: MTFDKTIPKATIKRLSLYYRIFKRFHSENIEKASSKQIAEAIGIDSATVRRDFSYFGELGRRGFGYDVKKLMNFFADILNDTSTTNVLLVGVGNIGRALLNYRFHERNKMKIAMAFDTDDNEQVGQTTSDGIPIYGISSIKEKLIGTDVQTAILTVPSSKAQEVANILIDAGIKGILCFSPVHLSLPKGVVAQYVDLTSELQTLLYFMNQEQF
Nature of the data set: EMSA. Conditions: 20 mM Tris pH 8.0, 1 mM EDTA, 75 mM KCl, 2 mM DTT, 10% glycerol, 10 min at room temperature (+15 min after NAD+/NADH); 5% native PAGE.

In data set [2] the target is T2, rRex (UniProt Q8DU91 1-213).
T2 sequence: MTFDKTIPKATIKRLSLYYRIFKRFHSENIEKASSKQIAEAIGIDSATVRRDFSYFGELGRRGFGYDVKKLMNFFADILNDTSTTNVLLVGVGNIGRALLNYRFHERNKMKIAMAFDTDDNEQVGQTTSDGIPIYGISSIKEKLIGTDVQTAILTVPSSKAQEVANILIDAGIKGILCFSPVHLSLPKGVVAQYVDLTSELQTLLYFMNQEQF
Nature of the data set: EMSA; 20 mM Tris pH 8.0, 1 mM EDTA, 75 mM KCl, 2 mM DTT, 10% glycerol, 10 min at room temperature (+15 min after NAD+/NADH); 5% native PAGE. Conditions: protein: recombinant; tags: N-terminal His (pQE30); blunt. (In EMSA bound probe runs differently from free probe, usually more slowly.)

For data set [3], the target named is T2, rRex. Nature of the data set: competition; unlabeled competitor against biotinylated adhE1, dose-dependent; 20 mM Tris pH 8.0, 1 mM EDTA, 75 mM KCl, 2 mM DTT, 10% glycerol, 10 min at room temperature (+15 min after NAD+/NADH); 5% native PAGE. The conditions noted are these: protein: recombinant; tags: N-terminal His (pQE30); blunt.

Turning to “ACAAGCCCATACTGAGTTTGGACATTAAAGCTCAGCAGGGCTATGATTATGATGTCATTATCATCGGCGGCGGTGTTTCAGGTGTGACTCTAGCC (double strand) [gshR promoter]”, the binding result in data set [1] is given as “binds”.

As for “ATGACAGTTCCTCGCATTTTTAATTTATGTTATAATTATAAGTGAAAAACATCACATTTGAAAAGCCTTACAAATATCTTAAAAAATGACTTTTTATGACTTTTAGATGGGAGGTTTGCTTAGT (double strand) [frdC promoter]”, in data set [1], the binding entry is reported as “binds”.

B1: adhE Rex-box oligo 148Fw/148Rv (dsDNA)
DNA 1: ATTTTTTTGTGAAAAGGGTTACAATGACAAG
DNA 2: CTTGTCATTGTAACCCTTTTCACAAAAAAAT
With B1, the binding result in data set [2] was “binds”.

B2: mutated adhE Rex-box oligo m148Fw/m148Rv (dsDNA)
DNA 1: ATTTTTAACAGTAAAGGGTTACAATGACAAG
DNA 2: CTTGTCATTGTAACCCTTTACTGTTAAAAAT
As to B2, in data set [2], the binding result was “no binding”.

B3: adhE1 cold oligo (dsDNA)
DNA 1: TTTTGTGAAAAGGGTTACAATG
DNA 2: CATTGTAACCCTTTTCACAAAA
On to B3, for which the binding result in data set [3] is on record as “binds”.
